# Test results taken from patent publication US20160058880.
# Columns and labels:
# [1] = tested on: N-succinyl-beta-alanyl-L-leucyl-L-alanyl-L-leucyl-doxorubicin
# [2] = tested on: Succinyl-βALPF-doxorubicin
substance,measurement,setting,value
"TOP (recombinant human thimet oligopeptidase, R&D systems, Ref 3439-ZN)",cleavage by purified TOP 5 nM (grade),[1],+
same,cleavage by purified TOP 5 nM (grade),PhAc-ALGP-doxorubicin,+
same,cleavage by purified TOP 5 nM (grade),PhAc-GPGP-doxorubicin,-
same,cleavage by purified TOP 5 nM (grade),PhAc-ALAL-doxorubicin,+
same,cleavage by purified TOP 5 nM (grade),PhAc-DLGP-doxorubicin,-
same,cleavage by purified TOP 5 nM (grade; * = less than 5% of metabolites detected),PhAc-AIGP-doxorubicin,-*
same,cleavage by purified TOP 5 nM (grade),[2],-
same,cleavage by purified TOP 5 nM (grade; * = less than 5% of metabolites detected),PhAc-ALPF-doxorubicin,-*
same,cleavage by purified TOP 5 nM (grade),LGP-Dox,-
same,cleavage by purified TOP 5 nM (grade),PhAc-KLGP-doxorubicin,+
same,cleavage by purified TOP 5 nM (grade; * = less than 5% of metabolites detected),PhAc-ALAF-doxorubicin,-*
same,cleavage by purified TOP 5 nM (grade),PhAc-TSGP-doxorubicin,+
